Reference: PMC6586995

B1: aptamer B03 (biotinylated, SPR) (structured_RNA)
RNA: GGUUACCAGCCUUCACUGCGCCCAGUCACUGCACGAAUCAGUGAUGGCCGCACCACGGUCGGUCACAC
modifications: 2'-fluoro pyrimidines? (not stated for B03)
B2: aptamer H02-2'F (XNA)
RNA: GGUUACCAGCCUUCACUGCGGACGGACAGAGAGUGCAACCUGCCGUGCCGCACCACGGUCGGUCACAC
modifications: 2'-fluoro pyrimidines

Tests used:
Assay in all cases: SPR
[1] = target: T1, integrin α5β1 (soluble, SPR) (Homo sapiens, UniProt P08648;P05556 42-995;21-728)
[2] = target: T1, integrin α5β1 (soluble, SPR); remark: listed apart in the source
[3] = target: integrin αvβ3 (Homo sapiens, UniProt P06756;P05106 31-992;27-718)
integrin αvβ3, sequence (P06756 31-992, chain 1 of 2): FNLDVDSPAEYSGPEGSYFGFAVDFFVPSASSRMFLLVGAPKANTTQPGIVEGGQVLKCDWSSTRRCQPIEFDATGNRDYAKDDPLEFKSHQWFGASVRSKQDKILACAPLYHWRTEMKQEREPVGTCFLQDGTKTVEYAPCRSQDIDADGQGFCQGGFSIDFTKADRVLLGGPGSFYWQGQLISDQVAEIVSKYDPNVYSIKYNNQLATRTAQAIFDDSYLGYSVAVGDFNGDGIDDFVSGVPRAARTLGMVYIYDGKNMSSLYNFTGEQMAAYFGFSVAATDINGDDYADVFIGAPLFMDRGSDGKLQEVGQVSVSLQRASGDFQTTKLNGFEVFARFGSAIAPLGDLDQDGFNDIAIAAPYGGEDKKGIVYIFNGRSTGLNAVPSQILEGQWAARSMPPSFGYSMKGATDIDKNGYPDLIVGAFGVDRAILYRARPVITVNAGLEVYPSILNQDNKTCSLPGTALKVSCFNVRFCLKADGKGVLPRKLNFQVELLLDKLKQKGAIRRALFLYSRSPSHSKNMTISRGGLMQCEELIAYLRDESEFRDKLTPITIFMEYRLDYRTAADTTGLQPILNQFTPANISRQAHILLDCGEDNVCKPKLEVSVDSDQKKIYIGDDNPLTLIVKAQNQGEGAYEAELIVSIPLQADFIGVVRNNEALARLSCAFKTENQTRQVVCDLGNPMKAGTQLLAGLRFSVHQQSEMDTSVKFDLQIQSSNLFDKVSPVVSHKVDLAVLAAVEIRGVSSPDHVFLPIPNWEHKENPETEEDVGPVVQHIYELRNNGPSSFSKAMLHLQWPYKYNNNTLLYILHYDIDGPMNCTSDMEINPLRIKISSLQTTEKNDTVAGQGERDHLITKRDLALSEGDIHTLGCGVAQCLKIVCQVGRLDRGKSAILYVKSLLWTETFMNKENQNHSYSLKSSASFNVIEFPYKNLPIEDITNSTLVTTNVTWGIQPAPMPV
integrin αvβ3, sequence (P05106 27-718, chain 2 of 2): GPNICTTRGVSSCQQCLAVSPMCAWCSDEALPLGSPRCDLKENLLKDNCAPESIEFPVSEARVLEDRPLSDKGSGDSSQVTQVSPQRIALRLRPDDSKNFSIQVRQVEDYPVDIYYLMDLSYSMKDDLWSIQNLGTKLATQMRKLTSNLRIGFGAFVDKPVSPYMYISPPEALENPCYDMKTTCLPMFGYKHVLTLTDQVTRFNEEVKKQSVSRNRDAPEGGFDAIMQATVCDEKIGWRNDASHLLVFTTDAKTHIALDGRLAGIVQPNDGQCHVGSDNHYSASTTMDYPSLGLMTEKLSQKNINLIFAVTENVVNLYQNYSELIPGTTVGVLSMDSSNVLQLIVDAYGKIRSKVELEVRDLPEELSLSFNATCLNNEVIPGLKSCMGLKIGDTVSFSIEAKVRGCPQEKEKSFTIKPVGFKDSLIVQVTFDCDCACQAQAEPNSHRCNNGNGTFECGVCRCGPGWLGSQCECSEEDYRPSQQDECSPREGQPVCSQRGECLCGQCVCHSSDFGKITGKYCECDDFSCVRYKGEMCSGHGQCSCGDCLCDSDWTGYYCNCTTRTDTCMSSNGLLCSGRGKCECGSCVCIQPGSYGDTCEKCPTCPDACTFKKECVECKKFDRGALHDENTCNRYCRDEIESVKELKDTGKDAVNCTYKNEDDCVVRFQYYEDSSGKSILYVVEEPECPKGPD

T1 sequence (P08648 42-995, chain 1 of 2): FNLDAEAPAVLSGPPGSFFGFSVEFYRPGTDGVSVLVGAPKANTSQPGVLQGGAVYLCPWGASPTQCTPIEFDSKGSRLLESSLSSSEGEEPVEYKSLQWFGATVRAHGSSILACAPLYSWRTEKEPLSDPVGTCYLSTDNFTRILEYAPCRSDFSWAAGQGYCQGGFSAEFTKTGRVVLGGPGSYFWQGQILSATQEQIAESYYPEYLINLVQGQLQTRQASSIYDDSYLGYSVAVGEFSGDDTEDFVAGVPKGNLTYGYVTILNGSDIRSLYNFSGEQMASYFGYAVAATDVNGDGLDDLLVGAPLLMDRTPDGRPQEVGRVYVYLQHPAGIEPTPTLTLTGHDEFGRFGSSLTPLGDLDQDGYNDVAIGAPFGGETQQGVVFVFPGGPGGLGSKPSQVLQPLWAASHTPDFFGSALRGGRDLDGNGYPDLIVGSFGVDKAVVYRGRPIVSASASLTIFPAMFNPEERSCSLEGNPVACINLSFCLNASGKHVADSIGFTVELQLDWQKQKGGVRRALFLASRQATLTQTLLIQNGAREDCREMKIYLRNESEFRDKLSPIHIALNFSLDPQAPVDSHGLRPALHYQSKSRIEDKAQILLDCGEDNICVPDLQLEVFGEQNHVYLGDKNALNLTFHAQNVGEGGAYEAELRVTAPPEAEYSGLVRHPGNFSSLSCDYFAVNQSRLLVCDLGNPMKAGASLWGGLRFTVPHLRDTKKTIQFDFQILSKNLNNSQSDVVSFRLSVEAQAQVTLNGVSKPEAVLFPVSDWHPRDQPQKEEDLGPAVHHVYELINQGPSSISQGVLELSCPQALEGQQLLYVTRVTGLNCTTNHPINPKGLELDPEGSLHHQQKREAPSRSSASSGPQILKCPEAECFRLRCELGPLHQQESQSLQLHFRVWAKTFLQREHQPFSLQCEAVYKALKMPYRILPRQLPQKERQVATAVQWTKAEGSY
T1 sequence (P05556 21-728, chain 2 of 2): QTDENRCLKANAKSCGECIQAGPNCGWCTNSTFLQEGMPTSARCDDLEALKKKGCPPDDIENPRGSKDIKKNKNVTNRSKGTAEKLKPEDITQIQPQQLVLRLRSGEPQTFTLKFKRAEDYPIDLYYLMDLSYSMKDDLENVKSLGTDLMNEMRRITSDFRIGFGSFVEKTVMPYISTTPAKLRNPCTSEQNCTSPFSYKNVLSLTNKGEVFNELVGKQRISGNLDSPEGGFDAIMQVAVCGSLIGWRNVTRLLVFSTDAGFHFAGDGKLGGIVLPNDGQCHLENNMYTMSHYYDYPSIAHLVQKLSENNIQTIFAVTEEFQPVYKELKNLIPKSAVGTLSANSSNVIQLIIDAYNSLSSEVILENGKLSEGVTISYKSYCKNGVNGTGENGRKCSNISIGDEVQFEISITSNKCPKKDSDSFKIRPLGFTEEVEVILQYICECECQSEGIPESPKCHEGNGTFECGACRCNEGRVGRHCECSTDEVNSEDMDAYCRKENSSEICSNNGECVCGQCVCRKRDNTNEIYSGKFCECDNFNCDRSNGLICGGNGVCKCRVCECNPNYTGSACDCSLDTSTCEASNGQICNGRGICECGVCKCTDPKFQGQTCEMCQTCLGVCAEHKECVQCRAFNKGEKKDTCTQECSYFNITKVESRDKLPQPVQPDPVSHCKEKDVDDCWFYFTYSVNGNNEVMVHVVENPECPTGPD

| Binder | binding result [1] | Kd [2] | binding result [3] |
| --- | --- | --- | --- |
| B1 | no binding |  |  |
| B2 |  | 72 ± 11 nM | no binding |
